B1: Axin-2 (Mus musculus), O88566 (parent)
chain: MSSAVLVTLLPDPSSSFREDAPRPPVPGEEGETPPCQPSVGKVQSTKPMPVSSNARRNEDGLGEPEGRASPDSPLTRWTKSLHSLLGDQDGAYLFRTFLEREKCVDTLDFWFACNGFRQMNLKDTKTLRVAKAIYKRYIENNSVVSKQLKPATKTYIRDGIKKQQIGSVMFDQAQTEIQAVMEENAYQVFLTSDIYLEYVRSGGENTAYMSNGGLGSLKVLCGYLPTLNEEEEWTCADLKCKLSPTVVGLSSKTLRATASVRSTETAENGFRSFKRSDPVNPYHVGSGYVFAPATSANDSELSSDALTDDSMSMTDSSVDGVPPYRMGSKKQLQREMHRSVKANGQVSLPHFPRTHRLPKEMTPVEPAAFAAELISRLEKLKLELESRHSLEERLQQIREDEEKEGSEQALSSRDGAPVQHPLALLPSGSYEEDPQTILDDHLSRVLKTPGCQSPGVGRYSPRSRSPDHHHQHHHHQQCHTLLPTGGKLPPVAACPLLGGKSFLTKQTTKHVHHHYIHHHAVPKTKEEIEAEATQRVRCLCPGGTDYYCYSKCKSHPKAPEPLPGEQFCGSRGGTLPKRNAKGTEPGLALSARDGGMSSAAGAPQLPGEEGDRSQDVWQWMLESERQSKSKPHSAQSIRKSYPLESACAAPGERVSRHHLLGASGHSRSVARAHPFTQDPAMPPLTPPNTLAQLEEACRRLAEVSKPQKQRCCVASQQRDRNHSAAGQAGASPFANPSLAPEDHKEPKKLASVHALQASELVVTYFFCGEEIPYRRMLKAQSLTLGHFKEQLSKKGNYRYYFKKASDEFACGAVFEEIWDDETVLPMYEGRILGKVERID

Variants of: B1
Settings: with cdc20_human CDC20, Q12834
Chain of cdc20_human CDC20, Q12834 (Q12834 whole entry): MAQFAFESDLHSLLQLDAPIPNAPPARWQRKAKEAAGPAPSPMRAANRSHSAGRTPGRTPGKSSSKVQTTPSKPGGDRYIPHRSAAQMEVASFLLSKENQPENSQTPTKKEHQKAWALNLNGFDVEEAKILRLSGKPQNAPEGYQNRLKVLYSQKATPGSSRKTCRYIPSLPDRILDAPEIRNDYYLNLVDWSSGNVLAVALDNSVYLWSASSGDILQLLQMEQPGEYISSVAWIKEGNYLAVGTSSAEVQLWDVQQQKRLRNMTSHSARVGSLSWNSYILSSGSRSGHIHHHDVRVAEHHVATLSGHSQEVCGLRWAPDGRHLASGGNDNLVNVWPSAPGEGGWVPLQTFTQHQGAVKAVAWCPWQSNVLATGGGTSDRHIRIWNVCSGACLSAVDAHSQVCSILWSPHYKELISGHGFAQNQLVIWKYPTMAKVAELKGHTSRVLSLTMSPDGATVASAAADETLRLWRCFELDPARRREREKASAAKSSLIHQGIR

Effect of a mutation on the interaction, decreasing interaction:
R657A
R776A
L778A
L391A
L660A
R388A
R775A

Variants of: B1
Settings: with cdc20_human CDC20, Q12834
Remark: another data set of the same source

Effect of a mutation on the interaction, decreasing interaction:
L99A
R96A

— IntAct's records for PubMed 22322943
